The nature of the data set: soluble on expression in E. coli; label from the status in PepcDB or PDB records.
Take “MPKLTIEGAGTFDVKEGTKLVLAIEDSGVNILHRCGGNARCTTCRVEILAGDFCEASANEKHAMTEKGIEDHLRLSCQMRVHKDIVVRPVLTVENSGLDAGPRPAE”: the “soluble on expression in E. coli” value was “not soluble”.

“MEKVMIELEEQVNQLINQILLKAENQYELLIGQCRSKVKLTNTQEHILMLLSEGQKTNSELAKALNVSQAAVTKAVKTLVKEGMLEGKKDKDDGRVTYFVLTQEAQPIAQEHKEHHQETLGVYRSVLDQFDHQERQVIGRFLIKLAEKIEE”: the “soluble on expression in E. coli” value is on record as “not soluble”. With “MGDTGKLGRIIRHDAFQVWEGDEPPKLRYVFLFRNKIMFTEQDASTSPPSYTHYSSIRLDKYNIRQHTTDEDTIVLQPQEPGLPSFRIKPKDFETSEYVRKAWLRDIAEEQEKYAAERD” the entry was “soluble”.

As for “SATTIGPNTCSIDDYKPYCCQSMSGSASLGCVVGVIGSQCGASVKCCKDDVTNTGNSFLIINAANCVA”, the “soluble on expression in E. coli” value is on record as “soluble”. With “MYYQQALMRSTVKSSVSLGGIVKYSEQFSSNDAIMSGCLPSNPWITDDTQFWDLNAKLVEIPTKMRVERWAFNFSELIRDPKGRQSFQYFLKKEFSGENLGFWEACEDLKYGDQSKVKEKAEEIYKLFLAPGARRWINIDGKTMDITVKGLKHPHRYVLDAAQTHIYMLMKKDSYARYLKSPIYKDMQAKAIDPQETTKKSSTLPFMRRHLRSSPSPVILRQLEEEAKAREAANTVDITQPGQHMAPSPHLTVYTGTCMPPSPSSPFSSSCRSPRKPFASPSRFIRRPTICPSPILVVLDSSSGLEQKGECSWSGANPGPSVTDSSEASRDTSWTRSRPRAPLKARMALSFSRFLRRGCLASPVFARVSPKCPAVSHGRVQPLGDVGQQLPRLKSKRVANFFQIKMDVPTGSGTCLMDSEDAGTGESGDRATEKEVICPWESL” the entry was “not soluble”; with “MSLTGGLFGAKPAGSTTGGLFGANTSTQQPAATQGSGLFGAKPTGTGLFGGQTQGSTTSGASAGGLFGKSANPAPGGAGLFGNTAQSNSVSSNTGGLFGSKPAATGGLFGGQPSAPLSTFGQNPATTSLQTPGTGSLFGAKPVSTIAPNTASQMQQQTGISTTNPYGTNELFTRITIPESITAPSQPRFTKVNTDTKATSLNTAYKLNPKPLFSKGSLPSASIAHATPSIDKAPQNTDKSDNETTLVKFGSSLFNPETDEALITADELLFNPDRKSFKTLLINKKKVNEALLNEKSTSPDKDIKRITFNEKSLLKDEDSVRSSIFDNVLETPTNTENKLSEASSVDHDFNERQEVSRPDLKGDLMPNGISKLPGVKGSDFTQMENGYYISPSLDTLASMSLFQLSSVTNFVVGHKDHGYIEFMEPVNLTDIPLTLICGGIIEFRPRACIVKSGNEAGFHGKGFNVRARIVCYKCFPLDKSTRKPVTNPDHALVKNHIKKFKSMPNCKFESYDPKTGTYVFAVDNAEGHHHHHH”, “soluble”. In the case of “MGSDKIHHHHHHMASIKAINNSAHGNVKVKSNPSFIQSKTKHFAPVVVQEFISASKEFPIVFIKDAETGRFNAVVLLGLKPQENLFFDEKSWQGSYIPEALTLYPFVIHQAEGSDKALLCVDEDSALVNETIGDAFFDEKGVQKEWLTAKGEAVVDYVNKSGVTQNFIQLLLAKELLAPQTLSLNLAGQEEYTLDGLYVINEQKLNDLSDSEFSELRKTNALPAIYAILMSMQCIKKLIDRQSSK” it was “not soluble”. With “MAHHHHHHSAARRRASGENLQQTRPIAAANLQWESYAEALEHSKQDHKPIGLFFTGSDWCMWCIKMQDQILQSSEFKHFAGVHLHMVEVDFPQKNHQPEEQRQKNQELKAQYKVTGFPELVFIDAEGKQLARMGFEPGGGAAYVSKVKSALKLR” the entry was “soluble”. On to “SLSKKSVQTLEDIARLANVSRSTVSRALNNSPLISKQTRERIQAIAREHNFCLNVSGRNLRLRSSRTIAFVAPMCFPPVASAEHLFGLEMLGAIWSGLHELNYDCLIVHSASQDTDWVHRYLHSGRVDGFILMESSFKQTQIEALVQMKVPFIVWGMPVSPFNYCSVTGDNVAGGRLATEYLIRTGRQRIAFLGGLKGTLTVENRFKGYEQALQLAGRALDPALIVYGDYTYASGAAGMQRLLERAPDLDAVFVNSDLMAIAAINVIQESGRSVPADIAVVGYDDLSIAGYATLPLTTIRQNIPLAGKLLAQNLIQHIETGLVTNVTVPVELVIRKSEG”, for which the “soluble on expression in E. coli” value is “not soluble”. With “MSLLSKDIKLLPGSKVEVVIRVSKNVIQEKYNSLLQDYSSRLKIQGFRIGKVPINVIENKYSEGLKATVLEEVINNSFKEFFKEESKIPLSYATPTVKEKNLKLNLDKDFEFTFTYETYPEFKIPSFDEIDIKVEIPEVFIDDSDIDDEIKNLQIENSIIIEDEEGVVKEDSIVKVDFVELDDLSNEIVSTKRQGFVFTVGKSETYYDFDKDVIGMRINEERVIEKSYIADYKFEELAGSSRKLKIKIKSIKKRDLPLIDDEFAQDISDKYNTLDDLKNFIRSSLLNIVEEKKETLKLNKFFSTISEKLEIDIPHSMIEAEIEIAFKDAKRQNKNNMSLEEFKSIFYSSGYIGGDNLKDEILGNLKSKLIMQKMVDLDPIKVTESDVEDEMARQSKNLGVSYEEIKKFYEDQNLISYLKDDIKRERAKKKILENLKEVKGKKLNFRDFVNYKIEGHHHHHH” the entry was “soluble”.

“MSLKRIVVANDLVGVGKVALSASIPLMASCLLEQVLLPTCLLSSHTGGGQNPVKHTTSSILDVFLTDWDNKRIKFDGIFIGYFTTTRDGQKLLEWLSRKQLPLILDPIMADNGKLYQGFSQKHIEIMIKLTQKAELVLPNISEACLLTQTAYLAKNYDEEDIRQVARKLAKLGPKQVVISGISFEEGSIGFAYYQSDSDQLTFHFGKQFPYHFYGTGDIASAIITAGFYYQLPLTQILDLVVSFLEKVLQNTLTLKRDLILGVAYESHLNYLTKSFKKLLEEKNVISKISEGHHHHHH”: the “soluble on expression in E. coli” value is reported as “soluble”. In the case of “MNSPFAAETLLFERSRPRPEALRVIYGFPNTYSVGITSLGYQLVWAQLASRADVAVSRLFTDVQEPLPRDPELVGFSFSWELDYGNLLVLLEQLGIPIWQRDRHDCHPLVFGGGPVLTANPEPFADFFDVILLGDAEPLLDPFLTTMAQVRTAARSQRLEALAHVPGIYVPSLYHVSYSHPTGPIQRIEPIKASVPPTVTKQVHRGHTLAASTVVTPLAAWENIYMVEVVRSCPELCRFCLASYLTLPFRTPSLETLIPAIERGLAVTDRLGLLGASITQHPEFPALIEHLGQPQFDHVRVSLASVRTNTVTESLAQLLSQRGSQSLTIAIETGSERLRQVINKKLETEEILAAASHAQAGGLKGLKFYGMVGLPTETDADVAATVDLFCQLKKTAPRLRLTLGCSTFVPKAHTPFQWWGVQPVAEKRLKFLKKELAKLGIEFRPESYNDSLIQALISRGDRRLAPLLEQVRHYGTSLGSYRRAFKERQGQLPDFEAYVNANWPEETVLPWQHLQSGLPTKTLENHLKRAIALEHHHHHH” it was “not soluble”; in that of “MGSDKIHHHHHHMSKPTQYGIIGCGMMGQEHLRNIALLPDARVAAIFEPNALMQAEAAKFAPDAQFVDSVEALLAIAELDCIMIASPNFRHVEQLETLASQNPLPVLVEKPLFTTLDDLNRIEEFAAHYPAPVWVAMEYRYMPPITAFLNEADTATGGIKMLTVREHRFPFLSKVDDWNRFNAQSGGTFVEKCCHFFDLMRLALKSEPVRIMASGGQDVNHLDERYDGSVPDILDNGYVIVEFESGARAMLELCMFAEGSKYQEDVSAVGPNGKVEAFVPGPGRFWPSHLGDAPVPKLVLSPRNPKGPEERDIPVDPTILDAGDHNGSTFYQHQKFLELVRGERSTPEVSLNDGKMAVLMGLAAQMSIAENRTVEISELL”, “not soluble”. For the sequence “MSIRFARKADCAAIAEIYNHAVLYTAAIWNDQTVDADNRIAWFEARTLAGYPVLVSEENGVVTGYASFGDWRSFDGFRHTVEHSVYVHPDHQGKGLGRKLLSRLIDEARDCGKHVMVAGIESQNQASLHLHQSLGFVVTAQMPQVGTKFGRWLDLTFMQLQLDERTEPDAIG”, the “soluble on expression in E. coli” value was “soluble”. Consider “ISNRIKGKTVLVTGAGGSIGSEICRQISAFQPKEIILLGHGENSIHSIYTELNGRFGKHIVFHTEIADVQDRDKMFTLMKKYEPHVVYHAAAHKHVPLMEHNPEE”, for which the “soluble on expression in E. coli” value is “not soluble”.

Turning to “MAHHHHHHMSDDIMNGDTLSEYRKIHKKNYEERIIKENELIEKQKTEELLNEKKKNEEIYRQLQIDKDREYSKQCYYEINNFQNIHERTYNDSDIRENYTQRLINPSAYSYIDNNMTQNLLDGDMGYTFSQRIRRFFLNK”, the “soluble on expression in E. coli” value is “not soluble”. With “MAQRLDGARFRYLNEQLYSGPSSAAQRLFQEDPEAFLLYHRGFQSQVKKWPLQPVDRIARDLRQRPASLVVADFGCGDCRLASSIRNPVHCFDLASLDPRVTVCDMAQVPLEDESVDVAVFCLSLMGTNIRDFLEEANRVLKPGGLLKVAEVSSRFEDVRTFLRAVTKLGFKIVSKDLTNSHFFLFDFQKTGPPLVGPKAQLSGLQLQPCLYKRR” the entry was “soluble”.

With “MIRWMNEPLWPFIERKKSMRNLVKYVGIGLLVMGLAACDDKDTNATAQGSVAESNATGNPVNLLDGKLSFSLPADMTDQSGKLGTQANNMHVWSDATGQKAVIVIMGDDPKEDLAVLAKRLEDQQRSRDPQLQVVTNKAIELKGHKMQQLDSIISAKGQTAYSSVILGNVGNQLLTMQITLPADDQQKAQTTAENIINTLVIQ”, the “soluble on expression in E. coli” value is recorded as “not soluble”. In the case of “MAAPILFWHRRDLRLSDNIGLAAARAQSAQLIGLFCLDPQILQSADMAPARVAYLQGCLQELQQRYQQAGSRLLLLQGDPQHLIPQLAQQLQAEAVYWNQDIEPYGRDRDGQVAAALKTAGIRAVQLWDQLLHSPDQILSGSGNPYSVYGPFWKNWQAQPKPTPVATPTELVDLSPEQLTAIAPLLLSELPTLKQLGFDWDGGFPVEPGETAAIARLQEFCDRAIADYDPQRNFPAEAGTSGLSPALKFGAIGIRQAWQAASAAHALSRSDEARNSIRVWQQELAWREFYQHALYHFPSLADGPYRSLWQQFPWENREALFTAWTQAQTGYPIVDAAMRQLTETGWMHNRCRMIVASFLTKDLIIDWRRGEQFFMQHLVDGDLAANNGGWQWSASSGMDPKPLRIFNPASQAKKFDATATYIKRWLPELRHVHPKDLISGEITPIERRGYPAPIVNHNLRQKQFKALYNQLKAAIAEPEAEPDS” it was “soluble”; in that of “MNNAHEENISSVTGFKSTSGSPAIGSSLPGRSGEGRSSSSSSGSTALLAVVNSTLKAIFSNTLDSIFHMVCTDSDKRLSSEFHCLQSMFNLQLFVNLGCPLS”, “soluble”.

In the case of “AHHHHHHGSDWKGRDVISIRDFSKEDIEIVLSTAERLEKELKEKGQLEYARGKILATLFFEPSTRTRLSFESAMHRLGGAVIGFAEASTSSVKKGESLADTIKTVEQYSDVIVIRHPKEGAARLAAEVAEIPVINAGDGSNQHPTQTLLDLYTIRKEFGKIDGLKIGLLGDLKYGRTVHSLAEALAYYDVELYLISPELLRMPRHIVEELREKGVTVYETSDLMSVIGELDVLYVTRIQKERFPDEQEYLKVRGSYQVNLQVLSKAKETLKVMHPLPRVDEIHPEVDKTKHAIYFKQVFNGIPVRMALLGLVLGVI”, the “soluble on expression in E. coli” value is reported as “soluble”.

(Values after the DeepSol protein solubility set.)
